Experimental data reported in patent publication US20200102387A1 (CELGENE, published 2020).

Tests used:
[1] = molecular target: T1, extracellular domain of SIRPα v1-DLN (e.g. SIRPα1) (human, UniProt P78324 31-373); assay: SPR Biacore T200, antibody on Protein A chip, 1:1 Langmuir fit
T1 construct: also called hSIRPα - ECD (v1)

[2] = molecular target: T2, SIRPγ extracellular domain (human, UniProt Q9P1W8 29-360); assay: as above
T2 construct: also called hSIRPγ - ECD

[3] = molecular target: T3, SIRPβ extracellular domain (human, UniProt O00241 30-371); assay: as above
T3 construct: also called hSIRPβ - ECD
T3 chain: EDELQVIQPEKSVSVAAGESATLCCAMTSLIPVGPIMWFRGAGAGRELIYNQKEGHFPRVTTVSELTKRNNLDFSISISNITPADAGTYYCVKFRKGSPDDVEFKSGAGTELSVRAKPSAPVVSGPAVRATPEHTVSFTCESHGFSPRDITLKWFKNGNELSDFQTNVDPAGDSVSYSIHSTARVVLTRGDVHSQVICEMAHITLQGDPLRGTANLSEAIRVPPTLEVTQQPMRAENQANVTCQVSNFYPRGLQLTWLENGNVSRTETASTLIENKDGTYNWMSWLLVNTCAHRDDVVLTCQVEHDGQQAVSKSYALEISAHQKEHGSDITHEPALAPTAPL

[4] = molecular target: T4, cynomolgus SIRPα on cells (cynomolgus, UniProt P78324 31-373 (human entry)); assay: flow cytometry of cynomolgus whole blood, gated CD14+ cells, Donor 2
T4 construct: also called cyno SIRPα-CHO; Cyno SIRPα-CHO-K1; not shown: Transmembrane and cytoplasmic region of cynomolgus SIRPα
T4 chain: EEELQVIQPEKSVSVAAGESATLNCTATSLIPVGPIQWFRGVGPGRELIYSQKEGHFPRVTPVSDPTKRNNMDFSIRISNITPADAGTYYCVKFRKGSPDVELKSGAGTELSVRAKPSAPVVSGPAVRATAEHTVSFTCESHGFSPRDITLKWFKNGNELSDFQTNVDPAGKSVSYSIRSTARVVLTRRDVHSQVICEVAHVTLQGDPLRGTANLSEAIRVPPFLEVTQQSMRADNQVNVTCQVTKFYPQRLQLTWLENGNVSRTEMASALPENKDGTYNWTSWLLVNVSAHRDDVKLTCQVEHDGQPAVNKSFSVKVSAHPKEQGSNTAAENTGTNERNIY

FcγR1 (CD64) = molecular target: T5, FcγR1 (CD64) (human, UniProt P12314 16-374); assay: cell binding, FcγR-engineered HEK293 cells
T5 construct: whole, on cells

FcγR3A (CD16aV158) = molecular target: T6, FcγR3A (CD16aV158) (human, UniProt P08637 17-254); assay: cell binding, FcγR-engineered HEK293 cells
T6 construct: whole, on cells

FcγR2B = molecular target: T7, FcγR2B (human, UniProt P31994 43-310); assay: cell binding, FcγR-engineered HEK293 cells
T7 construct: whole, on cells
T7 sequence (looked up): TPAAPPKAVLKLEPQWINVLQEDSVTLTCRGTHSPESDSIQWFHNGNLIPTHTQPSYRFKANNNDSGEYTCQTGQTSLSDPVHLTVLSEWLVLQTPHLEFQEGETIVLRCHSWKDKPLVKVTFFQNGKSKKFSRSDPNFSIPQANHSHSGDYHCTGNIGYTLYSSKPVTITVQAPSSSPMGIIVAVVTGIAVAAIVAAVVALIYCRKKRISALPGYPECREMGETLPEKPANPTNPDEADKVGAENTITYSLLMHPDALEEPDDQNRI

[5] = molecular target: T4, cynomolgus SIRPα on cells; assay: flow cytometry, cyno whole blood, gated CD14+ population, PE-conjugated antibody, one of two donors
[6] = molecular target: T4, cynomolgus SIRPα on cells; assay: flow cytometry of cynomolgus whole blood, gated CD14+ cells, Donor 1
mouse SIRPα on cells [7] = molecular target: T8, mouse SIRPα on cells (mouse, UniProt P97797 32-513); assay: flow cytometry, C57/BL6 macrophages, anti-human Fc detection; C57/BL6 macrophages (whole cells), not SIRPα-CHO-K1
T8 construct: whole, on cells; also called mouse SIRPα-CHO-K1; Ms SIRPα-CHO-K1
T8 sequence (looked up): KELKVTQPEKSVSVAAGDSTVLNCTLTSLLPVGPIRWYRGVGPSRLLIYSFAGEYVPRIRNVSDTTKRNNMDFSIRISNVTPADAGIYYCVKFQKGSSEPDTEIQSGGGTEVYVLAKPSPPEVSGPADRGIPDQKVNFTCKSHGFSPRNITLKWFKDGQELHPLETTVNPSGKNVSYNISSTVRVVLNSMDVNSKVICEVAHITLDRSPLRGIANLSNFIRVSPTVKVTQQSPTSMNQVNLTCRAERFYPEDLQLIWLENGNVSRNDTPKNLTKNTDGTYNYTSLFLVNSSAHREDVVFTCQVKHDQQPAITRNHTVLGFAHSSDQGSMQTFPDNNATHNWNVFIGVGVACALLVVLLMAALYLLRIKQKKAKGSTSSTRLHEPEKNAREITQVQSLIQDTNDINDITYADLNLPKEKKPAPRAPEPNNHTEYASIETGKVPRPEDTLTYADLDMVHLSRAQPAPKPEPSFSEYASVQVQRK

mouse SIRPα on cells [8] = molecular target: T8, mouse SIRPα on cells; assay: flow cytometry, C57BL/6-CD11b+ Cell Binding
mouse SIRPα on cells [9] = molecular target: T8, mouse SIRPα on cells; assay: flow cytometry competition on C57/BL6 macrophages, competitor mCD47-hFc 6.7 nM, antibody at 0.5 nM or more
mouse SIRPα-Fc = molecular target: T9, mouse SIRPα-Fc (mouse); assay: BLI Octet, antigen-Fc on biosensor
T9 construct: a signal peptide may be part of the entry; also called Ms; Ms SIRPα-Fc

NOD/SCID mouse SIRPα-Fc = molecular target: T10, NOD/SCID mouse SIRPα-Fc (mouse (NOD/SCID)); assay: BLI Octet, antigen-Fc on biosensor
T10 construct: a signal peptide may be part of the entry; also called NOD/SCID Ms SIRPα-Fc

mouse SIRPα on cells [10] = molecular target: T8, mouse SIRPα on cells; assay: cell binding, Ms SIRPα-CHO-K1 cells, 100 nM antibody

T10 sequence (chain, as listed by the source limits assumed): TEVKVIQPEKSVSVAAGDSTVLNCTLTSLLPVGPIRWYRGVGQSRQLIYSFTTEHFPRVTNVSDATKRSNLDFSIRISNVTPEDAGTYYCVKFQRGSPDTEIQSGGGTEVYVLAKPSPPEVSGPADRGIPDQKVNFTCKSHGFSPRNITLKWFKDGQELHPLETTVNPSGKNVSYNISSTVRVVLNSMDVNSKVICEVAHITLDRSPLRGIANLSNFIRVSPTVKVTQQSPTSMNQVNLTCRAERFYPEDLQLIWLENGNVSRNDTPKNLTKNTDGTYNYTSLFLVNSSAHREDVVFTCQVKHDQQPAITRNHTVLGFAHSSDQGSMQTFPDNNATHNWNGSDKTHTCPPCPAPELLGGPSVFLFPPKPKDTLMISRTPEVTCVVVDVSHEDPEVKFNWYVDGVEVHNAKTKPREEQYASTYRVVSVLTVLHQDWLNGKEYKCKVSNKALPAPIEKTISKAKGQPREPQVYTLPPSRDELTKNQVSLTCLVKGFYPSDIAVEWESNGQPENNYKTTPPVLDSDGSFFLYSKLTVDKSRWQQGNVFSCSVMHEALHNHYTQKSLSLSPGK
T2 sequence (Q9P1W8 29-360 limits assumed): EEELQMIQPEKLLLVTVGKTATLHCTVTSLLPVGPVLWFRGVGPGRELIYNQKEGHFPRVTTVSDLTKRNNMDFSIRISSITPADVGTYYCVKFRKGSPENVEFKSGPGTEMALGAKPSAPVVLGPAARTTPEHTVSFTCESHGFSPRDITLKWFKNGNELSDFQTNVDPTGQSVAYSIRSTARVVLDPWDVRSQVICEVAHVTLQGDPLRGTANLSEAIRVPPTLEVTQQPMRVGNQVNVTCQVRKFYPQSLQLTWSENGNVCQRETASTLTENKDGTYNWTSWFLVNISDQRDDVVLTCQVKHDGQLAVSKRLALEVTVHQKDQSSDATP
T5 sequence (P12314 16-374): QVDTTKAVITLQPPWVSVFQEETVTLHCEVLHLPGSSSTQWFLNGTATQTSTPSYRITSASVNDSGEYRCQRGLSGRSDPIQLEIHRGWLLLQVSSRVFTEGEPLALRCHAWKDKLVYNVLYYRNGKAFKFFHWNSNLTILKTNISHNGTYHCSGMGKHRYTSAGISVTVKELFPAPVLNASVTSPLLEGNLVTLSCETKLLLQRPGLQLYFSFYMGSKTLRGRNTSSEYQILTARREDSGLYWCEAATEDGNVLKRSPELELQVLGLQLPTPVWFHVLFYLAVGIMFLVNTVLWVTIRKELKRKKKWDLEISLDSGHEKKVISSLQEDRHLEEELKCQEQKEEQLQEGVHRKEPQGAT
T6 sequence (P08637 17-254 F176V): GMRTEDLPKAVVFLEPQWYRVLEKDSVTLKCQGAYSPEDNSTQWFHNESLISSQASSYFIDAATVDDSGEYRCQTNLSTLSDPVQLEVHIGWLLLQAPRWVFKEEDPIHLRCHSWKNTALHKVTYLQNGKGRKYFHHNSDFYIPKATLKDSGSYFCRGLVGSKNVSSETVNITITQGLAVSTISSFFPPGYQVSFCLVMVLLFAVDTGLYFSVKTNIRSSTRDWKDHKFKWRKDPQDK

B1: SIRPAB-12-K322A (antibody, human IgG1, kappa)
light: DIQMTQSPSSVSASVGDRVTITCRASQGISSWLAWYQQKPGKAPKLLIYAASNLQSGVPSRFSGSGSGTDFTLTISSLQPEDFATYYCQQGASFPITFGGGTKVEIKRTVAAPSVFIFPPSDEQLKSGTASVVCLLNNFYPREAKVQWKVDNALQSGNSQESVTEQDSKDSTYSLSSTLTLSKADYEKHKVYACEVTHQGLSSPVTKSFNRGEC
heavy: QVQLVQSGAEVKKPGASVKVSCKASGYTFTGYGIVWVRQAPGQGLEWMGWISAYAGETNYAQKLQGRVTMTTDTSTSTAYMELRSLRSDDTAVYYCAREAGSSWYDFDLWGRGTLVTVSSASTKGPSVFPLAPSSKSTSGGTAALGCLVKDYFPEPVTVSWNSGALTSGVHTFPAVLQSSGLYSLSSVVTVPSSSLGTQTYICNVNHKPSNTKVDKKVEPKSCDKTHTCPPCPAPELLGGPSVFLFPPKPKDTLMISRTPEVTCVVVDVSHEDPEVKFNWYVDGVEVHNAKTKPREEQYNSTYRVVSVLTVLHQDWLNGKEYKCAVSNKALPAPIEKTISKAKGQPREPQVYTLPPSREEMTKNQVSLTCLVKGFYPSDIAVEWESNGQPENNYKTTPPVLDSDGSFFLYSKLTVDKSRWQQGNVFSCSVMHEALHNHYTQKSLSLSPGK
notes: human IgG1 with K322A
Binder B1 has a Kd [1] of 0.424 nM, a Kd [2] of 0.351 nM and a Kd [3] of 2.08 nM.

B2: SIRPAB-11-4PE (antibody, human IgG4 S228P, kappa)
light: B1 light
heavy: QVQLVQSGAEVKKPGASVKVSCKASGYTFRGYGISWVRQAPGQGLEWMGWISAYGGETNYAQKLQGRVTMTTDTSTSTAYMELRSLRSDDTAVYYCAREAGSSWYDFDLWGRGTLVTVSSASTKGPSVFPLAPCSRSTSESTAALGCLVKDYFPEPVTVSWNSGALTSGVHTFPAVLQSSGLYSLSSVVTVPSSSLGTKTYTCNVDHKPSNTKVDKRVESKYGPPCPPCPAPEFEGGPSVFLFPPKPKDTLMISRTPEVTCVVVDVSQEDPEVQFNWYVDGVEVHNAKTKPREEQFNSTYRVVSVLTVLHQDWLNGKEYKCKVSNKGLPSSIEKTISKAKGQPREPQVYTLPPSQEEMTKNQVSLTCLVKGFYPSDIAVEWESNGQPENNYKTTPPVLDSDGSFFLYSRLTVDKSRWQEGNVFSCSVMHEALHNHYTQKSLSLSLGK
notes: human IgG4 with S228P and L235E; also called SIRPAB-11-IgG4PE; SIRPAB-11-IgG4PE-AF647
B2 gave an EC50 [4] of 0.39 nM, an EC50 (FcγR1 (CD64)) of 756 nM and an EC50 (FcγR3A (CD16aV158)) of 2060 nM. For the same binder, the EC50 (FcγR2B) was 5180 nM, the EC50 [5] was 0.43 nM and the EC50 [6] was 0.426 nM.

B3: mCD47-hFc (Fc fusion, mouse, UniProt Q61735 19-140, looked up, not shown: a dimerising Fc or GST)
chain: QLLFSNVNSIEFTSCNETVVIPCIVRNVEAQSTEEMFVKWKLNKSYIFIYDGNKNSTTTDQNFTSAKISVSDLINGIASLKMDKRDAMVGNYTCEVTELSREGKTVIELKNRTVSWFSPNEK
notes: also called recombinant mouse CD47
Work on B3 yielded an EC50 (mouse SIRPα on cells [7]) of 6.7 nM.

B4: … ANTIBODY (SIRPα reference antibody with light chain SEQ ID NO:224 and heavy chain SEQ ID NO:225) (antibody, human IgG1, kappa, V domains shown)
VH: EVQLQQSGAELVKPGASVKLSCTASGFNIKDYYIHWVQQRTEQGLEWIGRIDPEDGETKYAPKFQDKATITADTSSNTAYLHLSSLTSEDTAVYYCARWGAYWGQGTLVTVSA
VL: QIVLTQSPAIMSASPGEKVTLTCSASSSVSSSYLYWYQQKPGSSPKLWIYSTSNLASGVPARFSGSGSGTSYSLTISSMEAEDAASYFCHQWSSYPRTFGAGTKLELKR
In the case of B4, the Kd [1] is reported as 3.65 nM, the Kd [2] is reported as 1.47 nM and the Kd [3] is reported as 2.98 nM.

B5: SIRPAB-21 with mouse IgG2a (antibody, V domains shown)
VH: QVQLQESGPGLVKPSQTLSLTCTVSGGSISSGGYYWSWIRQHPGKGLEWIGAIYYSGPIYYNPSLKSRVTISVDTSKNQFSLKLSSVTAADTAVYYCSKEGYHSGMDVWGQGTTVTVSS
VL: DIQMTQSPSSLSASVGDRVTITCQASDDISDYLNWYQQKPGKAPKLLIYDASNLETGVPSRFSGSGSGTDFTFTISSLQPEDIATYYCQQFAYLPWTFGGGTKVEIK
For B5, the “EC50 (read off the curve)” value (mouse SIRPα on cells [8]) was roughly 0.3 nM and the “percent of mCD47 binding blocked” value (mouse SIRPα on cells [9]) was greater than 90%.

B6: SIRPAB-21 (antibody, human IgG1, kappa, V domains shown)
VH: B5 VH
VL: DIQMTQSPSSLSASVGDRVTITCQASDDISDYLNWYQQKPGKAPKLLIYDASNLETGVPSRFSGSGSGTDFTFTISSLQPEDIATYYCQQFAYLPWTFGGGTKVEIKR
Binder B6 has a Kd (mouse SIRPα-Fc) of 1.46 nM, a koff (mouse SIRPα-Fc) of 0.000708 s⁻¹ and a kon (mouse SIRPα-Fc) of 490000 M⁻¹ s⁻¹. For the same binder, the Kd (NOD/SCID mouse SIRPα-Fc) was 5.43 nM, the koff (NOD/SCID mouse SIRPα-Fc) was 0.0019 s⁻¹ and the kon (NOD/SCID mouse SIRPα-Fc) was 350000 M⁻¹ s⁻¹. The “fold increase over background (100 nM)” value (mouse SIRPα on cells [10]) was 2440 fold.
